Results: patent US20150197564A1 (Regeneron, published 2015)

Tests used:
hANGPTL3(17-460)-His [1] = target: T1, hANGPTL3(17-460)-His (human, UniProt Q9Y5C1 17-460); experiment: cell-based or functional assay
T1 sequence: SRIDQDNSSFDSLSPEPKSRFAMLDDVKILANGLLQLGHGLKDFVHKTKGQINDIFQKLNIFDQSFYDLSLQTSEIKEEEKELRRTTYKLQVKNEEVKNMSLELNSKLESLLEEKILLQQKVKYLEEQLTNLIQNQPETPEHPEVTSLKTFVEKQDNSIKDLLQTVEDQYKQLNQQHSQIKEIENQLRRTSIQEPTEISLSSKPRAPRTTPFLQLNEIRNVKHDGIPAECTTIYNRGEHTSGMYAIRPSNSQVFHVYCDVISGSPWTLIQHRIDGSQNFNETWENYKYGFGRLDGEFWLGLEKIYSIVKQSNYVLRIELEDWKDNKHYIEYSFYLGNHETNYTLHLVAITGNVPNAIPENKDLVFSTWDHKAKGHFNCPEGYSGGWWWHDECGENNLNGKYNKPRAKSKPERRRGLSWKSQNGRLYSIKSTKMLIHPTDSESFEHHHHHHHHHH

hANGPTL3(17-460)-His [2] = target: T1, hANGPTL3(17-460)-His; experiment: SPR Biacore, antigen captured, 25C, pH 7.4, HBS-EP
Description: (§1) All kinetic binding experiments were performed at 25° C. or 37° C. on a BIACORE™ T200 label-free molecular interaction instrument (GE Healthcare) using a CM5 sensor chip. Briefly, an antigen capture surface was generated by covalently coupling either an anti-mouse IgG-specific antibody (anti-mFc; GE Healthcare; catalog #BR-1008-38) or an anti-pentahistidine-specific antibody (Qiagen; catalog #34660) to the surface of a CM5 sensor chip using a standard amine coupling method.

hANGPTL3(17-170)-His = target: T2, hANGPTL3(17-170)-His (human, UniProt Q9Y5C1 17-170); experiment: SPR Biacore, antigen captured, 25C, pH 7.4, HBS-EP
T2 construct: also called N-terminal coiled-coil domain of hANGPTL3 with a C-terminal hexahistidine tag; Human ANGPTL3 (17-170)-His
T2 sequence: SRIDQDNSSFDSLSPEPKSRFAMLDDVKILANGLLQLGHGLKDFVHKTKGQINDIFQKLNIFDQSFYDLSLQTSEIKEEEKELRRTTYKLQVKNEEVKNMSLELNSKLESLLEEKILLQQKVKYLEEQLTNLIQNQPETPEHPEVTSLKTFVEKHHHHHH
Description: as §1

MfANGPTL3(17-170)-mmH = target: T3, MfANGPTL3(17-170)-mmH (Macaca fascicularis); experiment: SPR Biacore, antigen captured, 25C, pH 7.4, HBS-EP
T3 construct: also called N-terminal coiled-coil domain of ANGPTL3 from Macaca fascicularis with myc-myc-hexahistidine tag; Monkey ANGPTL3 (17-170)-mmH
T3 chain: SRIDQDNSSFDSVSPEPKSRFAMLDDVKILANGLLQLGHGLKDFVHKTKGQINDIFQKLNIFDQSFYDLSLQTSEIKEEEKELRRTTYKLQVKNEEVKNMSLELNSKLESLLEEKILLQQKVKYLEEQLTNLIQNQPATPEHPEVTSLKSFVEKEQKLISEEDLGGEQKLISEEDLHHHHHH
Description: as §1

mANGPTL3(17-455)-His = target: T4, mANGPTL3(17-455)-His (Mus musculus, UniProt Q9R182 17-455); experiment: SPR Biacore, antigen captured, 25C, pH 7.4, HBS-EP
T4 construct: Bought protein (R&D Systems); also called full-length mature ANGPTL3 from Mus musculus with a C-terminal decahistidine tag
T4 sequence: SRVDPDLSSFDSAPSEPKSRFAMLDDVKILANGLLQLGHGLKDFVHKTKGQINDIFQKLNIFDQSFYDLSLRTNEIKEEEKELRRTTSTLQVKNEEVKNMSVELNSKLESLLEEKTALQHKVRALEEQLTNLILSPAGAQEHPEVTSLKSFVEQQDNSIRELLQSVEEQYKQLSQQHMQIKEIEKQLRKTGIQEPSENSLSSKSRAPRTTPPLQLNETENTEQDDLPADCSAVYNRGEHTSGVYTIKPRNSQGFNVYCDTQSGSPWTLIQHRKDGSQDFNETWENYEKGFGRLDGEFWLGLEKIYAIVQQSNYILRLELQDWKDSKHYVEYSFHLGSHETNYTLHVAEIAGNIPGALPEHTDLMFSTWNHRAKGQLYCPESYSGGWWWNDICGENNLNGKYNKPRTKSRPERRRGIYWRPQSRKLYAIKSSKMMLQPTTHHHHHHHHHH
Description: as §1

mANGPTL3(17-240)-His = target: T5, mANGPTL3(17-240)-His (Mus musculus, UniProt Q9R182 17-240); experiment: SPR Biacore, antigen captured, 25C, pH 7.4, HBS-EP
T5 construct: also called N-terminal coiled-coil domain of ANGPTL3 from Mus musculus with a hexahistidine tag; Mouse ANGPTL3 (17-240)-His
T5 sequence: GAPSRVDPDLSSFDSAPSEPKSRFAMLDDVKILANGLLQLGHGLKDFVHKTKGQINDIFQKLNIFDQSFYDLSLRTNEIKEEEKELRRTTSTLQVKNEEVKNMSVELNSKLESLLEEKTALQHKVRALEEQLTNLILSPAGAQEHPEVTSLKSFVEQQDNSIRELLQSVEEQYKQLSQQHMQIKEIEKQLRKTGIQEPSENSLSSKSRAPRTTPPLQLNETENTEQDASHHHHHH
Description: as §1

rANGPTL3(17-240)-mmH = target: T6, rANGPTL3(17-240)-mmH (Rattus norvegicus); experiment: SPR Biacore, antigen captured, 25C, pH 7.4, HBS-EP
T6 construct: also called N-terminal coiled-coil domain of ANGPTL3 from Rattus norvegicus with myc-myc-hexahistidine tag
T6 chain: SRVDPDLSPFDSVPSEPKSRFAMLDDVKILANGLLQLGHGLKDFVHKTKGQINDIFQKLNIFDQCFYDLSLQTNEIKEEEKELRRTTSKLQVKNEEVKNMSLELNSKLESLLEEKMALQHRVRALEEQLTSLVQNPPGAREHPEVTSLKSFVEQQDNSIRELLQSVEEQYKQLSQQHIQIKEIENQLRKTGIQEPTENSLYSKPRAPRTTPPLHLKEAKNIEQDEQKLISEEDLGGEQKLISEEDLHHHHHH
Description: as §1

IC50 (nM), LPL bioassay, 80 nM constant ANGPTL3 (hANGPTL3(17-460)-His [1]): 9.6 nM
Kd (hANGPTL3(17-460)-His [2]): 0.491 nM
koff (hANGPTL3(17-460)-His [2]): 0.000289 s⁻¹
kon (hANGPTL3(17-460)-His [2]): 588000 M⁻¹ s⁻¹
t1/2 (hANGPTL3(17-460)-His [2]): 40 min
Kd (hANGPTL3(17-170)-His): 0.938 nM
koff (hANGPTL3(17-170)-His): 0.000912 s⁻¹
kon (hANGPTL3(17-170)-His): 973000 M⁻¹ s⁻¹
t1/2 (hANGPTL3(17-170)-His): 12.7 min
Kd (MfANGPTL3(17-170)-mmH): 0.396 nM
koff (MfANGPTL3(17-170)-mmH): 0.000535 s⁻¹
kon (MfANGPTL3(17-170)-mmH): 1.35e+06 M⁻¹ s⁻¹
t1/2 (MfANGPTL3(17-170)-mmH): 21.6 min
Kd (mANGPTL3(17-455)-His): 0.268 nM
koff (mANGPTL3(17-455)-His): 0.000346 s⁻¹
kon (mANGPTL3(17-455)-His): 1.29e+06 M⁻¹ s⁻¹
t1/2 (mANGPTL3(17-455)-His): 33.4 min
Kd (mANGPTL3(17-240)-His): 0.458 nM
koff (mANGPTL3(17-240)-His): 0.000307 s⁻¹
kon (mANGPTL3(17-240)-His): 670000 M⁻¹ s⁻¹
t1/2 (mANGPTL3(17-240)-His): 37.6 min
Kd (rANGPTL3(17-240)-mmH): 0.53 nM
koff (rANGPTL3(17-240)-mmH): 0.000718 s⁻¹
kon (rANGPTL3(17-240)-mmH): 1.35e+06 M⁻¹ s⁻¹
t1/2 (rANGPTL3(17-240)-mmH): 16.1 min
B1: H4H1276S (antibody, IgG4, V domains shown)
VH: EVQLVESGGGVIQPGGSLRLSCAASGFTFDDYAMNWVRQGPGKGLEWVSAISGDGGSTYYADSVKGRFTISRDNSKNSLYLQMNSLRAEDTAFFYCAKDLRNTIFGVVIPDAFDIWGQGTMVTVSS
VL: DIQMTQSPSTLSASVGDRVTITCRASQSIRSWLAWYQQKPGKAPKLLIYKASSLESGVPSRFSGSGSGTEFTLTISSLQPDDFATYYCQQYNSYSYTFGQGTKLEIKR
